Reference: article PMC10371073

B1: Fused in Sarcoma (FUS), endogenous wild type [human (endogenous in HEK293 and human fibroblasts)] / DNA Ligase IIIα (Lig3), mitochondrial form mtLig3 [human (endogenous in HEK293 and human fibroblasts)] (parent)
chain 1: MASNDYTQQATQSYGAYPTQPGQGYSQQSSQPYGQQSYSGYSQSTDTSGYGQSSYSSYGQSQNTGYGTQSTPQGYGSTGGYGSSQSSQSSYGQQSSYPGYGQQPAPSSTSGSYGSSSQSSSYGQPQSGSYSQQPSYGGQQQSYGQQQSYNPPQGYGQQNQYNSSSGGGGGGGGGGNYGQDQSSMSSGGGSGGGYGNQDQSGGGGSGGYGQQDRGGRGRGGSGGGGGGGGGGYNRSSGGYEPRGRGGGRGGRGGMGGSDRGGFNKFGGPRDQGSRHDSEQDNSDNNTIFVQGLGENVTIESVADYFKQIGIIKTNKKTGQPMINLYTDRETGKLKGEATVSFDDPPSAKAAIDWFDGKEFSGNPIKVSFATRRADFNRGGGNGRGGRGRGGPMGRGGYGGGGSGGGGRGGFPSGGGGGGGQQRAGDWKCPNPTCENMNFSWRNECNQCKAPKPDGPGGGPGGSHMGGNYGDDRRGGRGGYDRGGYRGRGGDRGGFRGGRGGGDRGGFGPGKMDSRGEHRQDRRERPY
chain 2: LLHGHPLFLRRKPVLSFQGSHLRSRATYLVFLPGLHVGLCSGPCEMAEQRFCVDYAKRGTAGCKKCKEKIVKGVCRIGKVVPNPFSESGGDMKEWYHIKCMFEKLERARATTKKIEDLTELEGWEELEDNEKEQITQHIADLSSKAAGTPKKKAVVQAKLTTTGQVTSPVKGASFVTSTNPRKFSGFSAKPNNSGEAPSSPTPKRSLSSSKCDPRHKDCLLREFRKLCAMVADNPSYNTKTQIIQDFLRKGSAGDGFHGDVYLTVKLLLPGVIKTVYNLNDKQIVKLFSRIFNCNPDDMARDLEQGDVSETIRVFFEQSKSFPPAAKSLLTIQEVDEFLLRLSKLTKEDEQQQALQDIASRCTANDLKCIIRLIKHDLKMNSGAKHVLDALDPNAYEAFKASRNLQDVVERVLHNAQEVEKEPGQRRALSVQASLMTPVQPMLAEACKSVEYAMKKCPNGMFSEIKYDGERVQVHKNGDHFSYFSRSLKPVLPHKVAHFKDYIPQAFPGGHSMILDSEVLLIDNKTGKPLPFGTLGVHKKAAFQDANVCLFVFDCIYFNDVSLMDRPLCERRKFLHDNMVEIPNRIMFSEMKRVTKALDLADMITRVIQEGLEGLVLKDVKGTYEPGKRHWLKVKKDYLNEGAMADTADLVVLGAFYGQGSKGGMMSIFLMGCYDPGSQKWCTVTKCAGGHDDATLARLQNELDMVKISKDPSKIPSWLKVNKIYYPDFIVPDPKKAAVWEITGAEFSKSEAHTADGISIRFPRCTRIRDDKDWKSATNLPQLKELYQLSKEKADFTVVAGDEGSSTTGGSSEENKGPSGSAVSRKAPSKPSASTKKAEGKLSNSNSKDGNMQTAKPSAMKVGEKLATKSSPVKVGEKRKAADETLCQTKVLLDIFTGVRLYLPPSTPDFSRLRRYFVAFDGDLVQEFDMTSATHVLGSRDKNPAAQQVSPEWIWACIRKRRLVAPC

Variants of: B1
Assay: proximity ligation assay (PLA) in control and patient derived fibroblasts
Settings: with DNA Ligase IIIα (Lig3), GO treatment (100ng/ml for 1 hr) per legend, the box plot does not say whether control or GO-treated cells were counted, parent: 64, read off a plot

Compared with chain 1 MASNDYTQQATQSYGAYPTQPGQGYSQQSSQPYGQQSYSGYSQSTDTSGYGQSSYSSYGQSQNTGYGTQSTPQGYGSTGGYGSSQSSQSSYGQQSSYPGYGQQPAPSSTSGSYGSSSQSSSYGQPQSGSYSQQPSYGGQQQSYGQQQSYNPPQGYGQQNQYNSSSGGGGGGGGGGNYGQDQSSMSSGGGSGGGYGNQDQSGGGGSGGYGQQDRGGRGRGGSGGGGGGGGGGYNRSSGGYEPRGRGGGRGGRGGMGGSDRGGFNKFGGPRDQGSRHDSEQDNSDNNTIFVQGLGENVTIESVADYFKQIGIIKTNKKTGQPMINLYTDRETGKLKGEATVSFDDPPSAKAAIDWFDGKEFSGNPIKVSFATRRADFNRGGGNGRGGRGRGGPMGRGGYGGGGSGGGGRGGFPSGGGGGGGQQRAGDWKCPNPTCENMNFSWRNECNQCKAPKPDGPGGGPGGSHMGGNYGDDRRGGRGGYDRGGYRGRGGDRGGFRGGRGGGDRGGFGPGKMDSRGEHRQDRRERLY [chain 1 P525L], chain 1 MASNDYTQQATQSYGAYPTQPGQGYSQQSSQPYGQQSYSGYSQSTDTSGYGQSSYSSYGQSQNTGYGTQSTPQGYGSTGGYGSSQSSQSSYGQQSSYPGYGQQPAPSSTSGSYGSSSQSSSYGQPQSGSYSQQPSYGGQQQSYGQQQSYNPPQGYGQQNQYNSSSGGGGGGGGGGNYGQDQSSMSSGGGSGGGYGNQDQSGGGGSGGYGQQDRGGRGRGGSGGGGGGGGGGYNRSSGGYEPRGRGGGRGGRGGMGGSDRGGFNKFGGPRDQGSRHDSEQDNSDNNTIFVQGLGENVTIESVADYFKQIGIIKTNKKTGQPMINLYTDRETGKLKGEATVSFDDPPSAKAAIDWFDGKEFSGNPIKVSFATRRADFNRGGGNGRGGRGRGGPMGRGGYGGGGSGGGGRGGFPSGGGGGGGQQRAGDWKCPNPTCENMNFSWRNECNQCKAPKPDGPGGGPGGSHMGGNYGDDRRGGRGGYDRGGYRGRGGDRGGFRGGRGGGDRGGFGPGKMDSRGEHRQDHRERPY [chain 1 R521H] is lower in response (PLA foci/cell): 20 for the first, 19 for the second.
